# In patent publication US20090130105A1:
# Tests used:
# [1] = target: human IGF-1R(1-903)-Fc (human) (UniProt P08069); test: ELISA, blocking of 320 nM IGF-1 His on biotinylated hIGF-1R-Fc
# [2] = target: human IGF-1R(1-903)-Fc (human) (UniProt P08069); test: ELISA on hIGF-1R-Fc; competitor Zenon-labeled αIR3; +++++ = 90-100%
# [3] = target: human IGF-1R(1-903)-Fc (human) (UniProt P08069); test: ELISA on hIGF-1R-Fc; competitor biotinylated M14-G11; +++++ = 90-100%
# Sequence of human IGF-1R(1-903)-Fc (human) (P08069 31-933): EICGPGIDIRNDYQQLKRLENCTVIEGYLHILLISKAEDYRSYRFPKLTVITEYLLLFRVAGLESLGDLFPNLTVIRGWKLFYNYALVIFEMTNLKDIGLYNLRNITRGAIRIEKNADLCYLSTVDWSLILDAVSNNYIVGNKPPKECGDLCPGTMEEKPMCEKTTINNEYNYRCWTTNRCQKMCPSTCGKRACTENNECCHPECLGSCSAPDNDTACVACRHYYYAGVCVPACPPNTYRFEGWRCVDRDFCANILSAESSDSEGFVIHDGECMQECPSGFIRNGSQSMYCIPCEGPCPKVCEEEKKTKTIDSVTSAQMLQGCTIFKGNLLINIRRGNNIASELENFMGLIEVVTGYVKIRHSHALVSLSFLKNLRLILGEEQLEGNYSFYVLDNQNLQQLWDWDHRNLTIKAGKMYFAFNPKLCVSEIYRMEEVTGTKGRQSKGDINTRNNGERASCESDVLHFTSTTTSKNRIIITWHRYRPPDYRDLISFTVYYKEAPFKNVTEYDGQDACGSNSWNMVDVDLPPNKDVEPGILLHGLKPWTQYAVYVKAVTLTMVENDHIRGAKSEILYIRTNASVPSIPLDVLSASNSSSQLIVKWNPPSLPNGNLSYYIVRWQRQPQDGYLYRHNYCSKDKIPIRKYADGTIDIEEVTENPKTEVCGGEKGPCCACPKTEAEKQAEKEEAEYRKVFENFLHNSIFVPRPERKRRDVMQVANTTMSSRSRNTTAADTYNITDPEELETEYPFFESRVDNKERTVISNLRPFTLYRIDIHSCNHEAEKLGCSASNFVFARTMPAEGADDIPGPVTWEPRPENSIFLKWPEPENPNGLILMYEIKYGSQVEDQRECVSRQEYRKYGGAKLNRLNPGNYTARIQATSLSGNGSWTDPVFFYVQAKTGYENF
substance,measurement,setting,value
αIR3 antibody,% IGF-1 (at 320 nM) bound to IGF-1R at saturating antibody concentrations,[1],23%
same,IC50,[1],4.9 nM
same,percent competition,[2],90 to 100%
same,percent competition,[3],90 to 100%
